# Assays:
# HLA-B*51:01 [1] = test: IEDB peptide-MHC binding, purified MHC/direct/fluorescence; filed as Kd, often an IC50 or EC50 that approximates it; ≥ and ≤ were set here for values at or beyond the usual limits of such assays
# HLA-A*30:01 = test: IEDB peptide-MHC binding, purified MHC/competitive/radioactivity; filed as Kd, often an IC50 or EC50 that approximates it; ≥ and ≤ were set here for values at or beyond the usual limits of such assays; details: source organism: Dengue virus 2 Jamaica/1409/1983
# HLA-B*40:01 [2] = test: as above; details: source organism: Dengue virus 2 Jamaica/1409/1983
# HLA-A*02:03 = test: IEDB peptide-MHC binding, purified MHC/direct/fluorescence; filed as Kd, often an IC50 or EC50 that approximates it; ≥ and ≤ were set here for values at or beyond the usual limits of such assays
# HLA-A*02:12 = test: as above; details: source organism: Orthohantavirus negraense
# HLA-A*02:16 = test: as above; details: source organism: Orthohantavirus negraense
# HLA-A*02:19 = test: as above
# HLA-A*24:03 = test: as above; details: source organism: Orthohantavirus negraense
# HLA-A*29:02 = test: as above
# HLA-A*02:01 [3] = test: IEDB peptide-MHC binding, purified MHC/competitive/fluorescence; filed as Kd, often an IC50 or EC50 that approximates it; ≥ and ≤ were set here for values at or beyond the usual limits of such assays; details: source organism: Orthohantavirus negraense
# HLA-A*03:01 [4] = test: as above; details: source organism: Orthohantavirus negraense
# HLA-A*26:01 [5] = test: as above; details: source organism: Orthohantavirus negraense
# HLA-A*69:01 [6] = test: as above; details: source organism: Orthohantavirus negraense
# HLA-B*15:01 [7] = test: as above; details: source organism: Orthohantavirus negraense
# HLA-B*15:17 = test: as above; details: source organism: Orthohantavirus negraense
# HLA-B*18:01 [8] = test: as above; details: source organism: Orthohantavirus negraense
# HLA-B*27:03 = test: as above; details: source organism: Orthohantavirus negraense
# HLA-B*39:01 [9] = test: as above; details: source organism: Orthohantavirus negraense
# HLA-B*46:01 [10] = test: as above; details: source organism: Orthohantavirus negraense
# HLA-B*51:01 [11] = test: as above; details: source organism: Orthohantavirus negraense
# HLA-B*57:01 [12] = test: as above; details: source organism: Orthohantavirus negraense
# HLA-A*01:01 = test: IEDB peptide-MHC binding, purified MHC/direct/fluorescence; filed as Kd, often an IC50 or EC50 that approximates it; ≥ and ≤ were set here for values at or beyond the usual limits of such assays; details: source organism: Yellow fever virus
# HLA-A*02:01 [13] = test: as above; details: source organism: Yellow fever virus
# HLA-A*03:01 [14] = test: as above; details: source organism: Yellow fever virus
# HLA-A*11:01 = test: as above; details: source organism: Yellow fever virus
# HLA-A*31:01 = test: as above; details: source organism: Yellow fever virus
# HLA-A*69:01 [15] = test: as above
# HLA-B*07:02 = test: as above; details: source organism: Yellow fever virus
# HLA-B*15:01 [16] = test: as above; details: source organism: Yellow fever virus
# HLA-B*18:01 [17] = test: as above
# HLA-B*27:05 = test: as above; details: source organism: Yellow fever virus
# HLA-B*40:01 [18] = test: as above; details: source organism: Yellow fever virus
# HLA-B*44:02 = test: as above; details: source organism: Yellow fever virus
# HLA-B*46:01 [19] = test: as above
# HLA-B*48:01 = test: as above; details: source organism: Yellow fever virus
# HLA-B*57:01 [20] = test: as above; details: source organism: Yellow fever virus
# HLA-B*58:01 = test: as above; details: source organism: Yellow fever virus
# HLA-A*26:01 [21] = test: as above; details: source organism: Bacillus anthracis str. A0465
# HLA-A*68:02 = test: as above; details: source organism: Bacillus anthracis str. A0465
# HLA-B*39:01 [22] = test: as above; details: source organism: Bacillus anthracis str. A0465
# [23] = source organism: Orthohantavirus negraense
# [24] = source organism: Yellow fever virus
# [25] = source organism: Bacillus anthracis str. A0465
sequence,measurement,setting,value
RERLSRMAI,Kd,HLA-B*51:01 [1]; source organism: dengue virus type 2,≥ 20 µM
same,Kd,HLA-A*30:01,0.828 µM
same,Kd,HLA-B*40:01 [2],0.0296 µM
SLLFREVWK,Kd,HLA-A*02:03; [23],≥ 20 µM
same,Kd,HLA-A*02:12,≥ 20 µM
same,Kd,HLA-A*02:16,≥ 20 µM
same,Kd,HLA-A*02:19; [23],≥ 20 µM
same,Kd,HLA-A*24:03,≥ 20 µM
same,Kd,HLA-A*29:02; [23],≥ 20 µM
same,Kd,HLA-A*02:01 [3],≥ 20 µM
same,Kd,HLA-A*03:01 [4],0.0374 µM
same,Kd,HLA-A*26:01 [5],≥ 20 µM
same,Kd,HLA-A*69:01 [6],≥ 20 µM
same,Kd,HLA-B*15:01 [7],≥ 20 µM
same,Kd,HLA-B*15:17,≥ 20 µM
same,Kd,HLA-B*18:01 [8],≥ 20 µM
same,Kd,HLA-B*27:03,≥ 20 µM
same,Kd,HLA-B*39:01 [9],≥ 20 µM
same,Kd,HLA-B*46:01 [10],≥ 20 µM
same,Kd,HLA-B*51:01 [11],≥ 20 µM
same,Kd,HLA-B*57:01 [12],≥ 20 µM
TKDTNDNNL,Kd,HLA-A*01:01,≥ 20 µM
same,Kd,HLA-A*02:01 [13],≥ 20 µM
same,Kd,HLA-A*03:01 [14],≥ 20 µM
same,Kd,HLA-A*11:01,≥ 20 µM
same,Kd,HLA-A*29:02; [24],≥ 20 µM
same,Kd,HLA-A*31:01,≥ 20 µM
same,Kd,HLA-A*69:01 [15]; [24],≥ 20 µM
same,Kd,HLA-B*07:02,≥ 20 µM
same,Kd,HLA-B*15:01 [16],≥ 20 µM
same,Kd,HLA-B*18:01 [17]; [24],≥ 20 µM
same,Kd,HLA-B*27:05,≥ 20 µM
same,Kd,HLA-B*40:01 [18],≥ 20 µM
same,Kd,HLA-B*44:02,≥ 20 µM
same,Kd,HLA-B*46:01 [19]; [24],≥ 20 µM
same,Kd,HLA-B*48:01,≥ 20 µM
same,Kd,HLA-B*57:01 [20],≥ 20 µM
same,Kd,HLA-B*58:01,≥ 20 µM
RLLRFTGLF,Kd,HLA-A*02:03; [25],≥ 20 µM
same,Kd,HLA-A*02:19; [25],≥ 20 µM
same,Kd,HLA-A*26:01 [21],≥ 20 µM
same,Kd,HLA-A*68:02,≥ 20 µM
same,Kd,HLA-A*69:01 [15]; [25],≥ 20 µM
same,Kd,HLA-B*18:01 [17]; [25],≥ 20 µM
same,Kd,HLA-B*39:01 [22],≥ 20 µM
same,Kd,HLA-B*46:01 [19]; [25],≥ 20 µM
same,Kd,HLA-B*51:01 [1]; [25],≥ 20 µM

# Source: the Immune Epitope Database (IEDB)
